Measurements from the supplement of paper PMC11865577.

Legend:
Test in all cases: pull-down binding Z-score (relative to library population); higher = stronger binding
[1] = test system: TO-3-N3 (biotin conjugate); conditions: RNA library: Library-2
In short: (§1)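 A heat-folded, dye-end-labelled (Cy5 or Cy3) RNA library (1 μg, phosphate/NaCl/KCl buffer) was exposed for 60 min at 25 °C to streptavidin beads holding 100 pmol of biotin-conjugated small molecule. RNA retained on the beads was eluted in hot SDS and hybridised to a DNA barcode microarray for 20 h at 55.5 °C. Binding scores were Z-scores against the library mean and standard deviation, calculated after subtracting beads alone and taking trimmed means of replicate probes.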

[2] = test system: G-clamp-N3 (biotin conjugate); conditions: RNA library: Library-1 (pre-miRNA loops + repeats)
In short: as §1

TO-N3 (biotin conjugate) = conditions: RNA library: Library-2
In short: as §1

[3] = test system: TO-3-N3-2 (biotin conjugate); conditions: RNA library: Library-2
In short: as §1

[4] = test system: TO-N3-2 (biotin conjugate); conditions: RNA library: Library-2
In short: as §1

Row | Sequence | pull-down binding Z-score [1] | pull-down binding Z-score [2] | pull-down binding Z-score (TO-N3 (biotin conjugate)) | pull-down binding Z-score [3] | pull-down binding Z-score [4]
1 | UUUGUGGAUUUUGAAAAGGUGCAGG [hsa-mir-15a] | -0.119 | 1.81 | 0.277 | 0.66 | 0.28
2 | UUUGUGGGGCGAGGAGGGACCUGUACUAGCCAUGGUUCUGAUCACAUAUG [hsa-mir-6834] | 3.06 | 0.432 | 3.83 | 2.72 | 2.89
3 | UUUGUGUAAGGAAUUUUGUGGUCACAAA [hsa-mir-10a] | -1.06 | 1.29 | -1.25 | -0.175 | -0.825
4 | UUUGUUGAAAGAAUAAAUAAACCAACAAG [hsa-mir-1264] | -0.424 | -0.724 | -0.367 | 0.0773 | -0.365
5 | UUUUAAUUUUUUUAAAA [hsa-mir-3606] | 0.211 | -1.03 | -0.183 | -0.175 | -1.39
6 | UUUUAGAA [hsa-mir-4443] | -0.568 | -1.3 | -0.913 | -0.535 | -1.35
7 | UUUUAUCAUUACUUUUAAUGGCAAAA [hsa-mir-548f-2] | 1.12 | 0.854 | 0.761 | 0.834 | -0.404
8 | UUUUCAGUUCCUGAGAUC [hsa-mir-4287] | -0.0736 | -1.15 | -0.128 | -0.202 | -0.441
9 | UUUUCAUGACAACCCUAUAUGGGAAAAUGUUGUGAAAA [hsa-mir-3646] | -0.839 | -0.346 | -1.1 | -0.448 | -1.78
10 | UUUUCCCUUUCUCUUGCCCUGAAA [hsa-mir-4509-1_4509-3_4509-2] | -0.261 | -1 | -0.332 | -0.096 | -0.219
11 | UUUUCCUGAGAAUAAGAGAAGGAAGG [hsa-mir-4455] | -0.477 | -0.563 | 0.0683 | -0.0611 | 0.75
12 | UUUUCGCUUUAUAUGUGACGAAAC [hsa-mir-495] | -0.605 | 0.0902 | -0.787 | 0.125 | -0.531
13 | UUUUCUGGGA [hsa-mir-4456] | -0.426 | -0.606 | -0.484 | -0.103 | -0.251
14 | UUUUCUGUCCUGUCCACACAGAAAA [hsa-mir-1537] | -0.957 | -1 | -1.27 | -0.517 | -0.902
15 | UUUUCUUAAAUUGUAUAAAGAGAAAU [hsa-mir-944] | -0.406 | -0.343 | -0.741 | -0.156 | -0.622
16 | UUUUGAAAGUAACUUGGCGAAA [hsa-mir-548ad] | -0.179 | 1.69 | -0.0602 | -0.118 | -0.299
17 | UUUUGACAUUACUUUCAAAGACAAAA [hsa-mir-548f-1] | -0.771 | -1.58 | -1.09 | -0.214 | -1.23

Row | Sequence | pull-down binding Z-score [1] | pull-down binding Z-score [2] | pull-down binding Z-score (TO-N3 (biotin conjugate)) | pull-down binding Z-score [3] | pull-down binding Z-score [4]
18 | UUUUGCAAUUUUUUAAUGACAAAA [hsa-mir-548t] | -0.494 | -0.195 | -0.585 | -0.334 | -0.704
19 | UUUUGCAGUUGAAAGUAAUGGCAAAG [hsa-mir-548ao] | -0.235 | 2.64 | -0.0635 | 0.00731 | 0.259
20 | UUUUGCAGUUUUUUUAAGUAAUUGCAAAA [hsa-mir-548f-3] | -0.492 | 0.0351 | -0.812 | -0.385 | -0.904
21 | UUUUGCAUUUAAAGUAAUGGCCAAA [hsa-mir-548ay] | -0.735 | 2.31 | -0.77 | -0.285 | -0.173
22 | UUUUGCCAUUAAAAGUAAUGACAAAA [hsa-mir-548f-4] | -0.924 | -0.841 | -1.47 | -0.56 | -1.66
23 | UUUUGCCAUUACUUUCAAUGGCAAAA [hsa-mir-548aa-2] | 0.127 | -0.284 | -0.176 | -0.23 | -1.08
24 | UUUUGCCAUUACUUUUACAGGCAAAA [hsa-mir-548aa-1] | -0.497 | -0.445 | -0.991 | -0.412 | -1.28
25 | UUUUGCUAUUACUUUUAAAGGCAAAA [hsa-mir-548e] | 0.431 | -0.666 | -0.0747 | 0.21 | -0.684
26 | UUUUGCUGUUACUUUUAAUGGCAAAA [hsa-mir-548az] | -0.418 | -0.982 | -0.752 | -0.34 | -1.3
27 | UUUUGCUUGUGUCUCUCCGCUCUGAGCAAUC [hsa-mir-96] | 0.441 | -0.253 | 0.528 | -0.0864 | 0.411
28 | UUUUGUCUGA [hsa-mir-553] | -0.414 | -1.4 | -0.549 | -0.242 | -0.491
29 | UUUUUCCAUUGUAAGUAAUGGGAAAA [hsa-mir-548f-5] | -0.644 | 0.457 | -0.991 | -0.567 | -1.67
30 | UUUUUCUUUACUUUUAAUGGCAAA [hsa-mir-548u] | -1.03 | 0.72 | -1.35 | -0.338 | -1.2
31 | UUUUUGCAUUACGUUCUAUGGCAAAA [hsa-mir-548g] | -0.297 | 1.18 | -0.182 | -0.00229 | -0.0583
32 | UUUUUGUUUUUGAGACAGAGU [hsa-mir-4472-2] | 0.455 | -0.943 | 0.274 | 0.0401 | -0.803
33 | UUUUUUUCCAAUGAAAAUAACGAAACCUGUUAUUUCCCAUUGAGGGGGAAAAA [hsa-mir-4484] | -1.12 | 0.398 | -1.15 | -0.221 | -0.641
34 | UUUUUUUCGCUUUAUUUGUGACGAAAC [hsa-mir-543] | -0.674 | -0.305 | -0.856 | -0.278 | -0.882
